Measurements taken from US20230365642A1.

Target: high affinity IL-2 receptor (IL-2R) consisting of CD122, CD132 and CD25, on CTLL-2 cells (mouse) (UniProt P01590)
Experiment: cell-based or functional assay

Chain of high affinity IL-2 receptor (IL-2R) consisting of CD122, CD132 and CD25, on CTLL-2 cells (mouse) (P01590 22-268, chain 1 of 3): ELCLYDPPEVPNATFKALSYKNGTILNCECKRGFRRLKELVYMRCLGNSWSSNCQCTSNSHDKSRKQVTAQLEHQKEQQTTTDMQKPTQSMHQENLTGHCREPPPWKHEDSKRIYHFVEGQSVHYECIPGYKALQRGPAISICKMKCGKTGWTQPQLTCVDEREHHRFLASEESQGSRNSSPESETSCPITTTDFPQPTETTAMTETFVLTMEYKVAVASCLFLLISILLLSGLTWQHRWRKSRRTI
Chain of high affinity IL-2 receptor (IL-2R) consisting of CD122, CD132 and CD25, on CTLL-2 cells (mouse) (P16297 27-539, chain 2 of 3, further chain): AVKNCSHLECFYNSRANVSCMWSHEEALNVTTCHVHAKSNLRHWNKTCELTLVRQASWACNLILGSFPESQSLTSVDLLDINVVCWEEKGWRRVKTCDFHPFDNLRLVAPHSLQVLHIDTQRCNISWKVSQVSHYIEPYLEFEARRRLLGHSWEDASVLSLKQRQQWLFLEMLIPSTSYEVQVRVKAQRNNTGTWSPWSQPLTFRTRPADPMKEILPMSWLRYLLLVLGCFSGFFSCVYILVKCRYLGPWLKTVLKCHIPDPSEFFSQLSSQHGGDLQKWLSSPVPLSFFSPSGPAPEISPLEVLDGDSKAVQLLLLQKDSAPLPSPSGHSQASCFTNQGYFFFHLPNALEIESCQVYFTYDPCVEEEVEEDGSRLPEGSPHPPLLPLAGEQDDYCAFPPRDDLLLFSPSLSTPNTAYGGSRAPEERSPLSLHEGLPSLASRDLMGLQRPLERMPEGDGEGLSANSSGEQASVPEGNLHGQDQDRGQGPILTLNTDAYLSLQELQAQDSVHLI
Chain of high affinity IL-2 receptor (IL-2R) consisting of CD122, CD132 and CD25, on CTLL-2 cells (mouse) (P34902 23-369, chain 3 of 3, further chain): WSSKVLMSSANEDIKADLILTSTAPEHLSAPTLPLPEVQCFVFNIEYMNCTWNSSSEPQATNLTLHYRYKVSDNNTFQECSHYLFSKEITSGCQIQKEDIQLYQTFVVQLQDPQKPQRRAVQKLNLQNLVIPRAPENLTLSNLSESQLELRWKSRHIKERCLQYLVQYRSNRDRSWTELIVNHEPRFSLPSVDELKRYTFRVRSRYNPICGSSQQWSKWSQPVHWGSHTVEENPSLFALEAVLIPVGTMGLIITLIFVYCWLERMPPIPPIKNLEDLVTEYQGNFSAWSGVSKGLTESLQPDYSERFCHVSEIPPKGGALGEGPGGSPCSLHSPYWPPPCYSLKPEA

CTLL-2 cell proliferation, EC50: 6.4 pM
Substance: rhIL-2 (from UniProt P60568 21-153) (ligand)
